Laboratory results as given in US5969094A, “Anti-paramyxovirus screening method and vaccine” (Emory University, priority 1996, dated 1999).
Changes are numbered by the printed parent chain.

Experiments:
PI3 virus = assay type: cell-based, human parainfluenza type 3 virus
PI3F + PI3HN = PI3F + PI3HN (Human parainfluenza 3 virus, UniProt P06828)
PI2 virus [1] = assay type: cell-based, parainfluenza virus type 2
PI2F + PI2HN = biological target: T1, PI2F + PI2HN (Human parainfluenza 2 virus, UniProt P25467); assay type: cell-based, parainfluenza virus type 2
T1 construct: expressed in transfected cells; host or cells: HeLa-T4 cells infected with vTF7.3
T1 sequence (P25467 107-551 limits assumed): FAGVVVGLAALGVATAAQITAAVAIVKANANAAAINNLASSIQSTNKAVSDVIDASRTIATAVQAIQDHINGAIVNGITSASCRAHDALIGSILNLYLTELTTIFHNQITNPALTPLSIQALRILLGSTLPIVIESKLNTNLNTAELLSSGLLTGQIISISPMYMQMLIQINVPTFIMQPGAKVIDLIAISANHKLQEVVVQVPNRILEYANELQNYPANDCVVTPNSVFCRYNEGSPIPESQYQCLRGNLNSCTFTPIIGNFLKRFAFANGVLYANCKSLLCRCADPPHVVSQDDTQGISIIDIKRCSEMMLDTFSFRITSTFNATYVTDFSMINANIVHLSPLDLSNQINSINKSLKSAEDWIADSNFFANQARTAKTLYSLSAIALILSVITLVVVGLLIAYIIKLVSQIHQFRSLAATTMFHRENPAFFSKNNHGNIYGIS
T1 sequence (P25467 24-106 partner limits assumed): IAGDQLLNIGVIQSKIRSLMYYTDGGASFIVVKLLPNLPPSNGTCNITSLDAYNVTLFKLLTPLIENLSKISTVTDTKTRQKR

PI2 virus [2] = assay: Inhibition of virus production (released virus titer) in HeLa-T4 cells, PI2; assay type: cell-based, parainfluenza virus type 2; details: compared with 2F1B34
[3] = biological target: T2, SN-F, fusion glycoprotein of Sendai virus (Sendai virus (SN), UniProt P04855); assay: cell-based or functional assay
T2 sequence: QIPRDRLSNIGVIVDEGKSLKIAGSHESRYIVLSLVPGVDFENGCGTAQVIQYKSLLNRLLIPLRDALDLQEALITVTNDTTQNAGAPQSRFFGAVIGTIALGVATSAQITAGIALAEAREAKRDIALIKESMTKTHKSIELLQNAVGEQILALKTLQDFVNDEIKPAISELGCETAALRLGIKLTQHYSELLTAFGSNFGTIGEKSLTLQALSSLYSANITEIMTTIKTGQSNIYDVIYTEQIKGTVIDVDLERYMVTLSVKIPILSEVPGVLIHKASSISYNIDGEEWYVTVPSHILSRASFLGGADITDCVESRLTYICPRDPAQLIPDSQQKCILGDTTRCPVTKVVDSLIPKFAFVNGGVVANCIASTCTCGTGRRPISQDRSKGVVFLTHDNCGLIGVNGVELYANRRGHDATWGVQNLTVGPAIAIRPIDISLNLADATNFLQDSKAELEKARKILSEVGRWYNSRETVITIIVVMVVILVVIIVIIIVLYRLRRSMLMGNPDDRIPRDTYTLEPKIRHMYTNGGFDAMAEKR

HeLa-T4 cells = assay type: cell-based
SN-F = biological target: T3, SN-F (Sendai virus, UniProt P04855); assay type: cell-based
T3 sequence (P04855 117-565 limits assumed): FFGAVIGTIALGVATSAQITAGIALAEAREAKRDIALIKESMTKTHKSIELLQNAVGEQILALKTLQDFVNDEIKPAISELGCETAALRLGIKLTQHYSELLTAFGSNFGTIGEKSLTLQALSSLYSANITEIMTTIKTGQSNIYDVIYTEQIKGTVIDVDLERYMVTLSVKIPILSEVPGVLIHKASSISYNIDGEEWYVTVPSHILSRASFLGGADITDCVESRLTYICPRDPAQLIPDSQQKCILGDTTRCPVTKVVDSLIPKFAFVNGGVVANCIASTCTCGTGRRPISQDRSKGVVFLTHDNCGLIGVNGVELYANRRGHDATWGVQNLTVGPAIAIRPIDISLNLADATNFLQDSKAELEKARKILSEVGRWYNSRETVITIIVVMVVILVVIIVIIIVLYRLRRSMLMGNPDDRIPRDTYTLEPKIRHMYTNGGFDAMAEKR
T3 sequence (P04855 26-116 partner limits assumed): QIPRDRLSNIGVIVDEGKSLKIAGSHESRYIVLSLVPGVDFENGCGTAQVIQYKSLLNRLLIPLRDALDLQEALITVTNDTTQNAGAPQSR

guinea pig erythrocytes = assay type: cell-based
[4] = biological target: PI3 F plus PI3 HN (viral glycoproteins of PI3 virus; HN:F) (parainfluenza type 3 (PI3) virus, UniProt P06828); assay: cell-based or functional assay
[5] = biological target: PI2 F plus PI2 HN (viral glycoproteins of PI2 virus; HN:F) (parainfluenza type 2 (PI2) virus)
[6] = biological target: PI2 F plus PI2 HN (viral glycoproteins of PI2 virus; HN:F) (parainfluenza type 2 (PI2) virus); remark: listed apart in the source
[7] = biological target: PI2 F plus PI2 HN (viral glycoproteins of PI2 virus; HN:F) (parainfluenza type 2 (PI2) virus); remark: listed apart in the source
[8] = incubated with peptide, concentration not given

Molecule: 3F1B24: 24 a.a. PI3F peptide corresponding to the heptad repeat B only (ELNKAKSDLEESKEWIRRSNQKLD)
- inhibition of PI3 cell fusion at high peptide concentration (PI3 virus): could only partially inhibit cell fusion
- syncytium formation / inhibition of cell fusion in PI3 infected HeLa-T4 cells (in words) (PI3 virus; [8]): dramatically decreased
- inhibition of PI3 virus-induced cell fusion (PI3 virus; peptide 200 μM or more, 24 h post infection): partially inhibited
- inhibition of cell fusion by vaccinia-expressed PI3 F and HN (in words) (PI3F + PI3HN): only partially inhibited cell fusion

Molecule: 2F1B21: 21 a.a. PI2F peptide from the beginning of the transmembrane domain to a predicted glycosylation site in the heptad repeat B region (KSAEDWIADSNFFANQARTAK)
- inhibition of PI2 cell fusion at high peptide concentration (PI2 virus [1]): could only partially inhibit cell fusion
- syncytium formation / inhibition of cell fusion in PI2 infected HeLa-T4 cells (in words) (PI2 virus [1]; [8]): dramatically decreased
- inhibition of PI2 virus-induced cell fusion (PI2 virus [1]; peptide 200 μM or more, 24 h post infection, m.o.i. 0.1): cell fusion was reduced remarkably
- inhibition of cell fusion by vaccinia-expressed PI2 F and HN (in words) (PI2F + PI2HN): only partially inhibited cell fusion
- effect on multiple cycle growth, PI2 (in words) (PI2 virus [2]): not as dramatic as

B1: SN(59-140)d chimeric HN protein (other)
chain: MEYWKHTNHGKDAGNELETSMATHGNKITNKITYILWTIILVLLSIVFIIVLISARQGYSMKEYSMTVEALNMSSREVKESLTSLIRQEVIARAVNIQSSVQTGIPVLLNKNSRDVIQMIDKSCSRQELTQHCESRITHDVGIKPLNPDDFWRCTSGLPSLMKTPKIRLMPGPGLLAMPTTVDGCVRTPSLVINDLIYAYTSNLITRGCQDIGKSYQVLQIGIITVNSDLVPDLNPRISHTFNINDNRKSCSLALLNTDVYQLCSTPKVDERSDYASSGIEDIVLDIVNHDGSISTTRFKNNNISFDQPYAALYPSVGPGIYYKGKIIFLGYGGLEHPINENAICNTTGCPGKTQRDCNQASHSPWFSDRRMVNSIIVVDKGLNSIPKLKVWTISMRQNYWGSEGRLLLLGNKIYIYTRSTSWHSKLQLGIIDITDYSDIRIKWTWHNVLSRPGNNECPWGHSCPDGCITGVYTDAYPLNPTGSIVSSVILDSQKSRVNPVITYSTSTERVNELAIRNKTLSAGYTTTSCITHYNKGYCFHIVEINHKSLDTFQPMLFKTEIPKSCS
- Fusion activity (%), β-galactosidase production in the fusion dependent reporter gene activation assay [3]: 31.3 % of SN-HN wt with SN-F
- Cell surface expression (%) (HeLa-T4 cells): 61.6%
- Relative fusion promoting activity b/a (SN-F): 0.51
- HAD activity as percentage of wild type SN-HN hemadsorption (guinea pig erythrocytes): comparable or higher HAD activity than that of SN-HN
- hemadsorption observed under the microscope (guinea pig erythrocytes): high levels of hemadsorption

Molecule: Ac-ELNKAKSDLEESKEWIRRSNQKLDSIGNWHQSSTT-NH2 [peptide 3F1B35]
- 50% effective concentration (EC50) of inhibition of virus infection efficiency, plaque assay, Reed-Muench method [4]: 81.6 µM
- viral titer in the culture supernatant post infection [4]: 10 fold reduction

B2: SN(80-140)d chimeric HN protein (other)
chain: MEYWKHTNHGKDAGNELETSMATHGNKITNKITYILWTIILVLLSIVFIIVLINSIKSEKAHESLLQDVNNEFMSREVKESLTSLIRQEVIARAVNIQSSVQTGIPVLLNKNSRDVIQMIDKSCSRQELTQHCESRITHDVGIKPLNPDDFWRCTSGLPSLMKTPKIRLMPGPGLLAMPTTVDGCVRTPSLVINDLIYAYTSNLITRGCQDIGKSYQVLQIGIITVNSDLVPDLNPRISHTFNINDNRKSCSLALLNTDVYQLCSTPKVDERSDYASSGIEDIVLDIVNHDGSISTTRFKNNNISFDQPYAALYPSVGPGIYYKGKIIFLGYGGLEHPINENAICNTTGCPGKTQRDCNQASHSPWFSDRRMVNSIIVVDKGLNSIPKLKVWTISMRQNYWGSEGRLLLLGNKIYIYTRSTSWHSKLQLGIIDITDYSDIRIKWTWHNVLSRPGNNECPWGHSCPDGCITGVYTDAYPLNPTGSIVSSVILDSQKSRVNPVITYSTSTERVNELAIRNKTLSAGYTTTSCITHYNKGYCFHIVEINHKSLDTFQPMLFKTEIPKSCS
- Fusion activity (%), β-galactosidase production in the fusion dependent reporter gene activation assay [3]: 6.72 % of SN-HN wt with SN-F
- Cell surface expression (%) (HeLa-T4 cells): 72.0%
- Relative fusion promoting activity b/a (SN-F): 0.09
- fusion promoting activity, percentage of wild type SN-HN (SN-F): 6.7%
- HAD activity as percentage of wild type SN-HN hemadsorption (guinea pig erythrocytes): 30.5%
- hemadsorption observed under the microscope (guinea pig erythrocytes): lower activities

B3: SN(54-140) chimeric HN protein (other)
chain: MEYWKHTNHGKDAGNELETSMATHGNKITNKITYILWTIILVLLSIVFIIVLIICIIISARQGYSMKEYSMTVEALNMSSREVKESLTSLIRQEVIARAVNIQSSVQTGIPVLLNKNSRDVIQMIDKSCSRQELTQHCESRITHDVGIKPLNPDDFWRCTSGLPSLMKTPKIRLMPGPGLLAMPTTVDGCVRTPSLVINDLIYAYTSNLITRGCQDIGKSYQVLQIGIITVNSDLVPDLNPRISHTFNINDNRKSCSLALLNTDVYQLCSTPKVDERSDYASSGIEDIVLDIVNHDGSISTTRFKNNNISFDQPYAALYPSVGPGIYYKGKIIFLGYGGLEHPINENAICNTTGCPGKTQRDCNQASHSPWFSDRRMVNSIIVVDKGLNSIPKLKVWTISMRQNYWGSEGRLLLLGNKIYIYTRSTSWHSKLQLGIIDITDYSDIRIKWTWHNVLSRPGNNECPWGHSCPDGCITGVYTDAYPLNPTGSIVSSVILDSQKSRVNPVITYSTSTERVNELAIRNKTLSAGYTTTSCITHYNKGYCFHIVEINHKSLDTFQPMLFKTEIPKSCS
- Fusion activity (%), β-galactosidase production in the fusion dependent reporter gene activation assay [3]: 55.3 % of SN-HN wt with SN-F
- Cell surface expression (%) (HeLa-T4 cells): 131.5%
- Relative fusion promoting activity b/a (SN-F): 0.42
- HAD activity as percentage of wild type SN-HN hemadsorption (guinea pig erythrocytes): comparable or higher HAD activity than that of SN-HN
- hemadsorption observed under the microscope (guinea pig erythrocytes): high levels of hemadsorption

B4: SN(59-140) chimeric HN protein (other)
chain: B3 chain with I54N, C55S, I57K, I58S
- Fusion activity (%), β-galactosidase production in the fusion dependent reporter gene activation assay [3]: 8.82 % of SN-HN wt with SN-F
- Cell surface expression (%) (HeLa-T4 cells): 82.3%
- Relative fusion promoting activity b/a (SN-F): 0.11
- fusion promoting activity, percentage of wild type SN-HN (SN-F): 8.8%
- HAD activity as percentage of wild type SN-HN hemadsorption (guinea pig erythrocytes): comparable or higher HAD activity than that of SN-HN
- hemadsorption observed under the microscope (guinea pig erythrocytes): high levels of hemadsorption

Molecule: Ac-DLSNQINSINKSLKSAEDWIADSNFFANQARTAK-NH2 [peptide 2F1B34]
- 50% effective concentration (EC50) of inhibition of virus infection efficiency, plaque assay, Reed-Muench method [5]: 53.8 µM
- viral titer in the culture supernatant 48 h post infection (plaque assay) (fold decrease) [6]: 15
- plaque size (peptide in the agar overlay after virus absorption, Vero cells) [7]: 1.5 mm
